In paper PMC10136361, “Inhibition Analysis and High-Resolution Crystal Structure of Mus musculus Glutathione Transferase P1-1” (Biomolecules, 2023):

Target: the molecule itself
Assay: crystal structure; co-crystallised with 2.5 mM Nb-GSH, hanging drop vapor diffusion, 0.1 M Tris-HCl pH 8.0, PEG 6000 20% (w/v), 0.2 M calcium chloride; data to 1.28 Å at 100 K; two molecules in the asymmetric unit

B1: Mus musculus glutathione transferase P1-1 (enzyme, UniProt P19157 1-210, looked up)
chain: MPPYTIVYFPVRGRCEAMRMLLADQGQSWKEEVVTIDTWMQGLLKPTCLYGQLPKFEDGDLTLYQSNAILRHLGRSLGLYGKNQREAAQMDMVNDGVEDLRGKYVTLIYTNYENGKNDYVKALPGHLKPFETLLSQNQGGKAFIVGDQISFADYNLLDLLLIHQVLAPGCLDNFPLLSAYVARLSARPKIKAFLSSPEHVNRPINGNGKQ
notes: Glutathione S-transferase P1, Mus musculus, cloned from cDNA by PCR after GenBank BC061109.1; also called MmGSTP1-1; GSTP1-1 from Mus musculus
binding result: binds
